Measured values published in PMC2781058 (Proceedings of the National Academy of Sciences of the …, 2009).
One block for each binder: values may come before it.

Target: T1, Med18 (S. cerevisiae, UniProt P32585 1-307)
T1 sequence (looked up): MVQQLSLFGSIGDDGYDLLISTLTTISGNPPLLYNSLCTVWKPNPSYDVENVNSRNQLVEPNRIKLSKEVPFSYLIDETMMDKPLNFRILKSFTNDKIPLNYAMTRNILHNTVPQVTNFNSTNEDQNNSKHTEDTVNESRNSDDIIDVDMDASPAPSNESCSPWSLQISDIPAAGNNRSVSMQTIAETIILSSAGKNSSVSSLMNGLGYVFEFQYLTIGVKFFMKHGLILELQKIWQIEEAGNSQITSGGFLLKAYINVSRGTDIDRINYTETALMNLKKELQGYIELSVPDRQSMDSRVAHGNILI
Test: co-IP

- binding result: binds
B1: Med20 (natural protein, S. cerevisiae, UniProt P34162 1-210, looked up)
chain: MGKSAVIFVERATPATLTELKDALSNSILSVRDPWSIDFRTYRCSIKNLPADVSKLMYSITFHHHGRQTVLIKDNSAMVTTAAAADIPPALVFNGSSTGVPESIDTILSSKLSNIWMQRQLIKGDAGETLILDGLTVRLVNLFSSTGFKGLLIELQADEAGEFETKIAGIEGHLAEIRAKEYKTSSDSLGPDTSNEICDLAYQYVRALEL

- binding result: binds
B2: Med8 (natural protein, S. cerevisiae, UniProt P38304 1-223, looked up)
chain: MSQSTASLVPEGNQGSLQEDVSFDFNGVPGQALDAVRMRLAQLTHSLRRIRDEMSKAELPQWYTLQSQLNVTLSQLVSVTSTLQHFQETLDSTVVYPLPKFPTTSHESLVTTLLRKKNIPEVDEWMKYVRETSGVTTALLKDEEIEKLLQQDREITNWARTTFRNEYGKHDFKNEESLSEEHASLLVRDSKPSKPFNVDDVLKFTFTGEKPIITGSTSTSSSN
